US20130096058A1 (AstraZeneca / MedImmune, published 2013)

Experiments:
[1] = molecular target: endogenous TRAIL R2 expressed on the cell surface (human, UniProt O14763 56-440); assay: cell-based or functional assay
cyno TRAIL R2-Fc [2] = molecular target: T1, cyno TRAIL R2-Fc (cynomolgus monkey (Macaca fascicularis)); assay: competition ELISA: F4 mod 1 coated, cyno TRAIL R2-Fc
T1 construct: The text prints 'cyno TRAIL R2' and 'cyno TRAIL R2-Fc' for the same ELISAs; also called cynomolgus TRAIL R2

cyno TRAIL R2-Fc [3] = molecular target: T1, cyno TRAIL R2-Fc; assay: competition ELISA: plate coated with F4 mod 1, cyno TRAIL R2-Fc, monomer titrated as competitor
cyno TRAIL R2-Fc [4] = molecular target: T1, cyno TRAIL R2-Fc; assay: competition ELISA: plate coated with F4 mod 1, 0.75 nM cyno TRAIL R2-Fc, purified monomer titrated as competitor

| Binder | Maximum Inhibition % (H2122) [1] | fold difference in binding between F4 mod 1 and F4 mod 12 (cyno TRAIL R2-Fc [2]) | IC50 (cyno TRAIL R2-Fc [3]) | IC50 (cyno TRAIL R2-Fc [4]) |
| --- | --- | --- | --- | --- |
| A3 (1E11) (designed binder) SGGGGSAIEVKDVTDTTALITWAKPWVDPPPLWGCELAYGIKDVPGDRTTIDLQQKHTAYSIGNLKPDTEYEVSLICFDPYGAKSNPAKETFTTGGGGSGGGGSGGGGSAIEVKDVTDTTALITWAKPWVDPPPLWGCELAYGIKDVPGDRTTIDLQQKHTAYSIGNLKPDTEYEVSLICFDPYGAKSNPAKETFTTGGGGSGGGGSGGGGSAIEVKDVTDTTALITWAKPWVDPPPLWGCELAYGIKDVPGDRTTIDLQQKHTAYSIGNLKPDTEYEVSLICFDPYGAKSNPAKETFTTGGGGSGGGGSGGGGSAIEVKDVTDTTALITWAKPWVDPPPLWGCELAYGIKDVPGDRTTIDLQQKHTAYSIGNLKPDTEYEVSLICFDPYGAKSNPAKETFTTGGGGSGGGGSGTLGHHHHHHHH | 91% | – | – | – |
| F4 mod 1 (designed binder, F4 with a D to G mutation two amino acids before the DE loop) AIEVKDVTDTTALITWAKPWVDPPPLWGCELAYGIKDVPGDRTTIGLQQKHTAYSIGNLKPDTEYEVSLICFDPYGLKSRPAKETFTTGGGTLGHHHHHHHH | – | ≤ 2 fold | 34 nM | 34 nM |
| F4 mod 12 (designed binder, Germline-engineered F4 mod 1) SQIEVKDVTDTTALITWAKPWVDPPPLWGCELTYGIKDVPGDRTTIGLQQKHNQYSIGNLKPDTEYEVSLICFDPYGLKSRPAKETFTTGLGTLGHHHHHHHH | – | ≤ 2 fold | 50 nM | – |
